Measurements: US20140105889A1 (published 2014)

B1: GpH7-B3/GpL16-k0 with A327R introduced into GpH7-B3 (antibody, human IgG1)
heavy: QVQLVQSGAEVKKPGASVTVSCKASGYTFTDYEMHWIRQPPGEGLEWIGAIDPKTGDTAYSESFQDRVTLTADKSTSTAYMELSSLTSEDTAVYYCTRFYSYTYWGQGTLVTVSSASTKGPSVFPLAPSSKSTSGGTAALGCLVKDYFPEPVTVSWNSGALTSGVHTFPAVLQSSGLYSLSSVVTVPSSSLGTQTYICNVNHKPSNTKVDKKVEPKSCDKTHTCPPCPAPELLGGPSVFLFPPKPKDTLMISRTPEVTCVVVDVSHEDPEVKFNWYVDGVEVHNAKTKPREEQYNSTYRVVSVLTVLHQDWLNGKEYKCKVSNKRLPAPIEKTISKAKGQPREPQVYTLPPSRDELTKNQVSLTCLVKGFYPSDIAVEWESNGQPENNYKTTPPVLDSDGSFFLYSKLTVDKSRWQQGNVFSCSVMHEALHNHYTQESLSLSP
light: DIVMTQSPLSLPVTPGEPASISCQASESLVHSNRNTYLHWYLQKPGQSPQLLIYKVSNRFSGVPDRFSGSGSGTDFTLKISRVEAEDVGVYYCSQNTHVPPTFGQGTKVEIE
notes: Anti-glypican-3 human IgG1; constant region B3 (G1d with K439E); Fc variant; also called B3 variant; copies: 2 + 2
B2: GpH7-B3/GpL16-k0 with P329H introduced into GpH7-B3 (antibody, human IgG1)
heavy: not shown
light: B1 light
notes: as for B1
B3: GpH7-B3/GpL16-k0 with P329K introduced into GpH7-B3 (antibody, human IgG1)
heavy: not shown
light: B1 light
notes: as for B1
B4: GpH7-B3/GpL16-k0 with L328K introduced into GpH7-B3 (antibody, human IgG1)
heavy: not shown
light: B1 light
notes: as for B1
B5: GpH7-B3/GpL16-k0 with P329L introduced into GpH7-B3 (antibody, human IgG1)
heavy: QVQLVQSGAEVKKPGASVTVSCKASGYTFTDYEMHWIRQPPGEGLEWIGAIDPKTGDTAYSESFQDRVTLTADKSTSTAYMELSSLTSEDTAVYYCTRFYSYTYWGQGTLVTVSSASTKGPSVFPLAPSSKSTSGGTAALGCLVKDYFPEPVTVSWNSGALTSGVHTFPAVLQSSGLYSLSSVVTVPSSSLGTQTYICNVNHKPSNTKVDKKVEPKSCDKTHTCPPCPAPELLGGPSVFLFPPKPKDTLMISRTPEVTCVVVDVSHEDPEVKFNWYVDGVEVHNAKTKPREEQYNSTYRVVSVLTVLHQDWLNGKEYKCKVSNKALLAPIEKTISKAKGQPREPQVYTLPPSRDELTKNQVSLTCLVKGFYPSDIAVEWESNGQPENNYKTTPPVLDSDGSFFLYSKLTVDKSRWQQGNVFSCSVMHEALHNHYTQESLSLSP
light: B1 light
notes: as for B1
B6: GpH7-B3/GpL16-k0 with N325T introduced into GpH7-B3 (antibody, human IgG1)
heavy: not shown
light: B1 light
notes: as for B1
B7: GpH7-B3/GpL16-k0 with A327F introduced into GpH7-B3 (antibody, human IgG1)
heavy: not shown
light: B1 light
notes: as for B1
B8: GpH7-B3/GpL16-k0 with L328N introduced into GpH7-B3 (antibody, human IgG1)
heavy: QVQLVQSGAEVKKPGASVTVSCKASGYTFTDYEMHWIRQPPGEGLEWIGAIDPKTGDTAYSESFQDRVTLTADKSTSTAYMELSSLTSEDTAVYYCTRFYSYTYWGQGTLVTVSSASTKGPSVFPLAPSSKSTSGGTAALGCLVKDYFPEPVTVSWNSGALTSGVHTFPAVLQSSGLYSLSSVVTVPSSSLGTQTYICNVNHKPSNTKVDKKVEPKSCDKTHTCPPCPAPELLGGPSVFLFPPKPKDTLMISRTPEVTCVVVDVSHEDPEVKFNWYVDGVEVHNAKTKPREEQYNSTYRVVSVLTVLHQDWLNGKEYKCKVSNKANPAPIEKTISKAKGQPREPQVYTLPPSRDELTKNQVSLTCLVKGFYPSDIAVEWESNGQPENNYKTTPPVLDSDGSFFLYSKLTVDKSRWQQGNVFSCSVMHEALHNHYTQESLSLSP
light: B1 light
notes: as for B1
B9: GpH7-B3/GpL16-k0 with A327T introduced into GpH7-B3 (antibody, human IgG1)
heavy: not shown
light: B1 light
notes: as for B1
B10: GpH7-B3/GpL16-k0 with A327L introduced into GpH7-B3 (antibody, human IgG1)
heavy: not shown
light: B1 light
notes: as for B1
B11: GpH7-B3/GpL16-k0 with P329Q introduced into GpH7-B3 (antibody, human IgG1)
heavy: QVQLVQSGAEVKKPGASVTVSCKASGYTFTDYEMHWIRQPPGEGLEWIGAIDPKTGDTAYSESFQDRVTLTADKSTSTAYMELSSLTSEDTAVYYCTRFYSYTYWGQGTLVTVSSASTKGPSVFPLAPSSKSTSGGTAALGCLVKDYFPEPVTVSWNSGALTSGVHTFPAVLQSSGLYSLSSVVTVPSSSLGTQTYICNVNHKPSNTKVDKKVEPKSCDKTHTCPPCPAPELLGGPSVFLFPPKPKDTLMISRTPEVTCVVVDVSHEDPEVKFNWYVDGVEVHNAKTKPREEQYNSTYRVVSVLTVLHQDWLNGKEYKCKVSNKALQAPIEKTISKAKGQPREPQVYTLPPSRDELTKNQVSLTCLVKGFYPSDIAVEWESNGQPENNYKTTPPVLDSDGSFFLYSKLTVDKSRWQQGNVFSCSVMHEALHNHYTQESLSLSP
light: B1 light
notes: as for B1
B12: GpH7-B3/GpL16-k0 with L328G introduced into GpH7-B3 (antibody, human IgG1)
heavy: not shown
light: B1 light
notes: as for B1
B13: GpH7-B3/GpL16-k0 with A327W introduced into GpH7-B3 (antibody, human IgG1)
heavy: not shown
light: B1 light
notes: as for B1
B14: GpH7-B3/GpL16-k0 with N325H introduced into GpH7-B3 (antibody, human IgG1)
heavy: not shown
light: B1 light
notes: as for B1
B15: GpH7-B3/GpL16-k0 with N325Y introduced into GpH7-B3 (antibody, human IgG1)
heavy: not shown
light: B1 light
notes: as for B1
B16: GpH7-B3/GpL16-k0 with L328H introduced into GpH7-B3 (antibody, human IgG1)
heavy: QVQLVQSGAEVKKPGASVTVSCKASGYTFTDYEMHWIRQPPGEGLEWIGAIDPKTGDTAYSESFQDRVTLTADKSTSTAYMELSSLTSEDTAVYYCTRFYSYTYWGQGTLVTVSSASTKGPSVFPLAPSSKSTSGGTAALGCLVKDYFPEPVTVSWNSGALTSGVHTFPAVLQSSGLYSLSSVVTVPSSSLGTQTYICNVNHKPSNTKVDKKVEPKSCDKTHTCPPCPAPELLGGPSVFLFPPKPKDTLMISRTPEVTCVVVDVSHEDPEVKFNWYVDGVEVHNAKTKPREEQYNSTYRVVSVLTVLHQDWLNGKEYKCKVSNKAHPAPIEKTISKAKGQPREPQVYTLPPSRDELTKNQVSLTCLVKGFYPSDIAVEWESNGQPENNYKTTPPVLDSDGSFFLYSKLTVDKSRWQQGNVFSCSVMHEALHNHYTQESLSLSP
light: B1 light
notes: as for B1
B17: GpH7-B3/GpL16-k0 with A327Y introduced into GpH7-B3 (antibody, human IgG1)
heavy: not shown
light: B1 light
notes: as for B1
B18: GpH7-B3/GpL16-k0 with P329T introduced into GpH7-B3 (antibody, human IgG1)
heavy: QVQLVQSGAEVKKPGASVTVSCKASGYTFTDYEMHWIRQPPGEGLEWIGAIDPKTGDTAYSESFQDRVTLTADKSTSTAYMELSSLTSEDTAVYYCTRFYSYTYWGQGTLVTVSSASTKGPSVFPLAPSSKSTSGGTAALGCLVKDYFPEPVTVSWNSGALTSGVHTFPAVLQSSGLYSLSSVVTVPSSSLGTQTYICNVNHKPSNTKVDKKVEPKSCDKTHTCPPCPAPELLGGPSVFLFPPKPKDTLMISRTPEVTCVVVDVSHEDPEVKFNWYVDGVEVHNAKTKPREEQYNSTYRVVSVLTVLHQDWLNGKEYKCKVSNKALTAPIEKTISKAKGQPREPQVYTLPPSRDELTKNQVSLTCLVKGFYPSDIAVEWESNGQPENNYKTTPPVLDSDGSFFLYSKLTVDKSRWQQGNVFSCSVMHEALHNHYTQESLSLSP
light: B1 light
notes: as for B1
B19: GpH7-B3/GpL16-k0 with N325I introduced into GpH7-B3 (antibody, human IgG1)
heavy: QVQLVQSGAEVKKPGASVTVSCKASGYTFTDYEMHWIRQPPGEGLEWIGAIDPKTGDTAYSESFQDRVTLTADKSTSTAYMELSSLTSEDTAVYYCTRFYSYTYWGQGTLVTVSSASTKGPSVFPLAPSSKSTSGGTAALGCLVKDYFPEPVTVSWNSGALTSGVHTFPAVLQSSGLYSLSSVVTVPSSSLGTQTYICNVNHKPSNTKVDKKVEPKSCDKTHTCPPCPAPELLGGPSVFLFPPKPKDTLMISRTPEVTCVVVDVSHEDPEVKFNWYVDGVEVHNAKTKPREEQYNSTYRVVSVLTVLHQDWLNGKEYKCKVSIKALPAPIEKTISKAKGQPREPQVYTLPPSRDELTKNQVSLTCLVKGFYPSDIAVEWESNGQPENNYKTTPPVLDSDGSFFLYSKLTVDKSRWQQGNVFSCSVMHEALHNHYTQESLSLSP
light: B1 light
notes: as for B1
B20: GpH7-B3/GpL16-k0 with A327Q introduced into GpH7-B3 (antibody, human IgG1)
heavy: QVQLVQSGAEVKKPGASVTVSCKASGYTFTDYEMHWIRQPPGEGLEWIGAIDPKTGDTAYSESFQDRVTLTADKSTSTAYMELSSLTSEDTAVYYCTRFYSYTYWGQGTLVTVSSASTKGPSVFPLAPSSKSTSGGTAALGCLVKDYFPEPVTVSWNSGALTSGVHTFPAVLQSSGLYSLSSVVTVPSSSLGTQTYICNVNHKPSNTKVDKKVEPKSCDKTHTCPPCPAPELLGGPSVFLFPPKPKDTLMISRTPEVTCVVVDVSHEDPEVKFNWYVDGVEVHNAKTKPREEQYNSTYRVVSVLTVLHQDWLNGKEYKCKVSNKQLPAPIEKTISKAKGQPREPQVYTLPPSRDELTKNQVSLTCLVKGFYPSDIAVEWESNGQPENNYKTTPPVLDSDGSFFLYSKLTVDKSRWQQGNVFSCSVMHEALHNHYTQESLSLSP
light: B1 light
notes: as for B1
B21: GpH7-B3/GpL16-k0 with A327P introduced into GpH7-B3 (antibody, human IgG1)
heavy: not shown
light: B1 light
notes: as for B1
B22: GpH7-B3/GpL16-k0 with P329F introduced into GpH7-B3 (antibody, human IgG1)
heavy: not shown
light: B1 light
notes: as for B1
B23: GpH7-B3/GpL16-k0 with S324K introduced into GpH7-B3 (antibody, human IgG1)
heavy: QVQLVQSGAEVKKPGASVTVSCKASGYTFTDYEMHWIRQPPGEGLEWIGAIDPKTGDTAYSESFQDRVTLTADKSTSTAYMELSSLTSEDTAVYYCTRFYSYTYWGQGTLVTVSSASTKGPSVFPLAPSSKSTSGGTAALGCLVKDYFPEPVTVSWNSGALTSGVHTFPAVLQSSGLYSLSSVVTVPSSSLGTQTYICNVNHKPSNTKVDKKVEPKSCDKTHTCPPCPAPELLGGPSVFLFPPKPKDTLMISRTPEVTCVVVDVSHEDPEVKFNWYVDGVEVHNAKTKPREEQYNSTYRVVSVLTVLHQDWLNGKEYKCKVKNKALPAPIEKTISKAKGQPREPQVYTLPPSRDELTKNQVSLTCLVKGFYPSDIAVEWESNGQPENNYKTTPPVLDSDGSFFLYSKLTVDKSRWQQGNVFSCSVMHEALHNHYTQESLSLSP
light: B1 light
notes: as for B1
B24: GpH7-B3/GpL16-k0 with P329V introduced into GpH7-B3 (antibody, human IgG1)
heavy: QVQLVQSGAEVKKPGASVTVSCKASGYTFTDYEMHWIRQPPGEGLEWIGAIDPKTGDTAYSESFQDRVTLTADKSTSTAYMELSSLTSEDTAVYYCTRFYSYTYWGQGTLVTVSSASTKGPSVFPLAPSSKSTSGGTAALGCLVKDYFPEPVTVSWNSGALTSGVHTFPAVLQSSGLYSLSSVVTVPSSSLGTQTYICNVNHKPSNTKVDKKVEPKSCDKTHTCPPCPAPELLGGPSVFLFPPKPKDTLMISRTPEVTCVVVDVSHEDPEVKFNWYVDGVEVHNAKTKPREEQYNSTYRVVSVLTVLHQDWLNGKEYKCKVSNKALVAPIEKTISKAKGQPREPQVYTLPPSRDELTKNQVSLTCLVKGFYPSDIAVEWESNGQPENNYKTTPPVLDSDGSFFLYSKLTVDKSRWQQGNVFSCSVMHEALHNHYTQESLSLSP
light: B1 light
notes: as for B1
B25: GpH7-B3/GpL16-k0 with N325F introduced into GpH7-B3 (antibody, human IgG1)
heavy: not shown
light: B1 light
notes: as for B1
B26: GpH7-B3/GpL16-k0 with A327S introduced into GpH7-B3 (antibody, human IgG1)
heavy: not shown
light: B1 light
notes: as for B1
B27: GpH7-B3/GpL16-k0 with N325P introduced into GpH7-B3 (antibody, human IgG1)
heavy: not shown
light: B1 light
notes: as for B1
B28: GpH7-B3/GpL16-k0 with L328P introduced into GpH7-B3 (antibody, human IgG1)
heavy: not shown
light: B1 light
notes: as for B1

target: T1, human FcγRIIIa(F) (human, UniProt P08637 17-208, limits assumed); experiment: SPR (Biacore), captured antibody, FcγR analyte; bound amount relative to GpH7-B3/GpL16-k0 x100;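 note: receptor response divided by the antibody amount captured on the chip before comparison with the reference antibody, measured at 25 °C in HBS-EP+ running buffer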
T1 construct: also called FcgRIIIaF; FcγRIIIa allotype F158
T1 sequence (P08637 other isoform, or with tags, fused parts or gaps limits assumed): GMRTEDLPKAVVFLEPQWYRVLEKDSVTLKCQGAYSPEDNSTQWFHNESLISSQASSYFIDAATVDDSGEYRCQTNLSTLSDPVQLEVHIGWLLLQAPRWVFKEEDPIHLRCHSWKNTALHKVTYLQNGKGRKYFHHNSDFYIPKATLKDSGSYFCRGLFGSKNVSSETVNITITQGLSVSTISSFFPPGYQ
Procedure: Interaction between each modified antibody and Fcγ receptor prepared in the manner described above was analyzed using the Biacore T100 (GE Healthcare), Biacore T200 (GE Healthcare), Biacore A100 or Biacore 4000. HBS-EP+ (GE Healthcare) was used for the running buffer, and measurements were carried out at 25° C. The chips used were chips in which antigen peptides, Protein A (Thermo Scientific), Protein A/G (Thermo Scientific) or Protein L (ACTIGEN or BioVision) were immobilized on the Series S Sensor Chip CM5 (GE Healthcare) or Series S Sensor Chip CM4 (GE Healthcare) by amine coupling, or chips in which preliminarily biotinylated antigen peptides were allowed to interact and then immobilized on the Series S Sensor Chip SA (certified) (GE Healthcare). The target antibodies were captured on these sensor chips, Fcγ receptor diluted with the running buffer was allowed to interact, followed by measurement of the amount of bound antibody. The amounts bound were compared between antibodies. However, since the amount of Fcγ receptor bound depends on the amount of captured antibody, the values used for comparison were first corrected by dividing the amount of Fcγ receptor bound by the captured amount of each antibody. Through reaction with 10 mM glycine-HCl at pH 1.5, the sensor chips were regenerated by washing off antibody captured on the sensor chips and used repeatedly.
Binding strength was evaluated according to the following method based on the results of analyzing the interaction with each FcγR. […] That value was then further multiplied by 100, and the resulting value was used as an indicator of relative binding activity to each FcγR.

B1 was tested. Which relative binding activity did it give?
Its relative binding activity is 1 % of GpH7-B3/GpL16-k0.

Which relative binding activity does the source give for B2 here?
Its relative binding activity is -1 % of GpH7-B3/GpL16-k0.

Which relative binding activity does the source give for B3 here?
The relative binding activity was -1 % of GpH7-B3/GpL16-k0.

B4 was tested. Which relative binding activity did it give?
Its relative binding activity is 0 % of GpH7-B3/GpL16-k0.

For B5, which relative binding activity is on record?
The relative binding activity was 0 % of GpH7-B3/GpL16-k0.

Which relative binding activity does the source give for B6 here?
Its relative binding activity is 10 % of GpH7-B3/GpL16-k0.

Which relative binding activity does the source give for B7 here?
The relative binding activity was 16 % of GpH7-B3/GpL16-k0.

B8 was tested. Which relative binding activity did it give?
The relative binding activity was 22 % of GpH7-B3/GpL16-k0.

How did the relative binding activity turn out when B9 was run?
The relative binding activity was 10 % of GpH7-B3/GpL16-k0.

B10 was tested. Which relative binding activity did it give?
Its relative binding activity is 13 % of GpH7-B3/GpL16-k0.

For B11, which relative binding activity is on record?
The relative binding activity was -1 % of GpH7-B3/GpL16-k0.

Which relative binding activity does the source give for B12 here?
The relative binding activity was 8 % of GpH7-B3/GpL16-k0.

Which relative binding activity does the source give for B13 here?
The relative binding activity was 17 % of GpH7-B3/GpL16-k0.

How did the relative binding activity turn out when B14 was run?
The relative binding activity was 37 % of GpH7-B3/GpL16-k0.

Which relative binding activity does the source give for B15 here?
Its relative binding activity is 5 % of GpH7-B3/GpL16-k0.

For B16, which relative binding activity is on record?
Its relative binding activity is 13 % of GpH7-B3/GpL16-k0.

How did the relative binding activity turn out when B17 was run?
The relative binding activity was 13 % of GpH7-B3/GpL16-k0.

With B18 as the binder, how does the relative binding activity read?
The relative binding activity was -1 % of GpH7-B3/GpL16-k0.

For B19, which relative binding activity is on record?
Its relative binding activity is 1 % of GpH7-B3/GpL16-k0.

For B20, which relative binding activity is on record?
The relative binding activity was 18 % of GpH7-B3/GpL16-k0.

With B21 as the binder, how does the relative binding activity read?
The relative binding activity was 20 % of GpH7-B3/GpL16-k0.

How did the relative binding activity turn out when B22 was run?
Its relative binding activity is 0 % of GpH7-B3/GpL16-k0.

How did the relative binding activity turn out when B23 was run?
The relative binding activity was 74 % of GpH7-B3/GpL16-k0.

B24 was tested. Which relative binding activity did it give?
Its relative binding activity is 7 % of GpH7-B3/GpL16-k0.

For B25, which relative binding activity is on record?
The relative binding activity was -1 % of GpH7-B3/GpL16-k0.

With B26 as the binder, how does the relative binding activity read?
Its relative binding activity is 42 % of GpH7-B3/GpL16-k0.

How did the relative binding activity turn out when B27 was run?
Its relative binding activity is 0 % of GpH7-B3/GpL16-k0.

For B28, which relative binding activity is on record?
The relative binding activity was 3 % of GpH7-B3/GpL16-k0.
